Data reported in the supplement of paper PMC10567573.
± gives the standard deviation.

Assay: protein stability index of a GFP-peptide fusion (GPS, HEK-293T) (PSI 1-6); higher = more stable
[1] = treatment: DMSO, c terminus: a fixed tail appended
[2] = treatment: MLN4924 1 uM, 8 h, c terminus: a fixed tail appended
[3] = treatment: DMSO, c terminus: native
[4] = treatment: MLN4924 1 uM, 8 h, c terminus: native
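Further: 24-mer peptide tiles fused after GFP, lentivirally expressed, FACS-sorted into six equal bins by GFP/DsRed ratio, decoded by Illumina sequencing, PSI is the read-weighted mean bin number.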

Sequence	protein stability index [1]	protein stability index [2]	protein stability index [3]	protein stability index [4]
HESVCKYYLCGFCPAELFTNTRSD [LUC7L3]	2.17 ± 0.33	2.54 ± 0.29		
GDEFSLREHELLCRADHGLLLERA [ISL2]	4.06 ± 0.49	3.65 ± 0.35		
KETELPFPKQILDQNNVIENEETG [MIA2]		5.09 ± 0.62		
NVLLFKKQNPGKFCLLSCGILTFL [RETREG3]	2.43 ± 0.69	2.89 ± 0.73		
KRLKERSLDTLLEAVESRGGVPGG [SMAD6]	4.32 ± 0.16	4.72 ± 0.12		
EGLNSSLCSPGHERRGTPADTEEP [PSD2]	5.39 ± 0.37	5.53 ± 0.19		
DFGLAIEVQGDQQAWFGFAGTPGY [CAMK2B]	2.26 ± 0.35	2.15 ± 0.3		
SGDPPLSSNVSLSLFVLDQNDNAP [PCDHGA10]	3.63 ± 0.09	3.59 ± 0.27		
RNRKLKCTFSLTHPANRSCRETGS [SLC22A15]	3.37 ± 0.16	3.44 ± 0.23		
LHDNHEQMPTEIEFPESRKPISTK [ZNF649]	5.1 ± 0.22	5.25 ± 0.31		
AAQNGDESSTRLLLEKNASVNEVD [RIPK4]	5.37 ± 0.24	5.48 ± 0.27		
PLLHKDSASLEVVKKDHVALQVPR [CBY2]	4.31 ± 0.095	4.3 ± 0.49		
KEKQSRDFQGRILSVDPEEEREEG [RHOBTB1]	5.25 ± 0.24	5.46 ± 0.55		
PTMHLESPALQVMGPAQEAPVAEA [ZNF449]	5.22 ± 0.17	5.21 ± 0.07		
SCNDSKLEFRSFWELIGEAAKSVK [S100A14]	2.18 ± 0.21	2.11 ± 0.52		
NGPLGPSEASIASNLQAMSTQMFQ [SMG5]	3.93 ± 0.18	3.95 ± 0.074		
YLTEGLLQFTILLSLIGVRVDVDT [NFE2L1]	2.66 ± 0.15	3.25 ± 0.35		
NSDRMTHCGVLEFVADEGICYLPH [UFD1]	2.87 ± 0.17	2.68 ± 0.36		
HHDKVQSLCYLQLTRQLVSCSSDG [WDFY1]	2.2 ± 0.36	2.06 ± 0.28		
TGPLQPQPKKPEDEPQETAYRTQV [PKD2L1]	5.11 ± 0.45	5.3 ± 0.2		
RAVIAWMEKIPFVLGGNLQGGELV [CPXM2]		2.36 ± 0.63		
IAAGEVIQRPANAIKEMIENCLDA [MLH1]	4.26 ± 0.18	4.3 ± 0.34		

Sequence	protein stability index [1]	protein stability index [2]	protein stability index [3]	protein stability index [4]
MLDHHPVAITVEVKQEEDIKPPPP [RAD54B]	5.08 ± 0.22	5.19 ± 0.1		
TVEPRLLVADLLYWKDTRTSGVVF [RTN2]	2.97 ± 0.61	2.98 ± 0.6		
RHAEQQALRLEVRAGPDSAGIALY [CARM1]	2.54 ± 0.43	2.81 ± 0.7		
SQKYKEGKYIIELNHMIKDNGWD [YPEL3]			2.94 ± 0.28	2.97 ± 0.15
VEGRKHVDVQTELYLEEIADRIIE [RSPH3]	2.55 ± 0.33	2.77 ± 0.41		
EHPPEVSRETQRTPMNHQKAVNDE [FBXO34]	5.29 ± 0.21	5.41 ± 0.075		
SWTAVTPQQTWASPAEVVDLTLDE [C18orf25]	4.74 ± 0.21	4.73 ± 0.2		
PNRFLRGHRPPPARSGHRCVADNT [KLHDC10]	4.04 ± 0.2	4.32 ± 0.34		
SSTSPLMEGTPTIKSKKKLLQIID [VPS39]	3.76 ± 0.23	3.79 ± 0.23		
PMMKLKRHFVAQKYKKQIDHMYH [ACSBG2]			2.7 ± 0.32	2.75 ± 0.32
TNDRTASQGQWGRAWEVDWFSLAS [DHCR7]	2.61 ± 0.56	2.68 ± 0.33		
LTFMNEQGEYPPGTSTWQFNFKFN [CNOT7]	2.21 ± 0.074	2.39 ± 0.3		
QGVHQGAGFQDIPKRCLKAREHFG [TSN]	3.31 ± 0.36	2.9 ± 0.27		
SWEEGMKVFEELLLDADWSINAGS [CRY1]	2.84 ± 0.22	2.89 ± 0.33		
LACWTYGISVPSGLFVPSLLCGAA [CLCN6]	3.13 ± 0.1	3.43 ± 0.4		
DPLSPMTASSLLSFAELFSFMLQD [FEM1C]	2.71 ± 0.49	2.42 ± 0.51		
LTERKYKGDSTIRELKAKLSGVEE [SASS6]	4.18 ± 0.41	4.63 ± 0.52		
VILNYPSPWDQEERPAQRDCSFPG [TRAF3IP2]	2.79 ± 0.21	3.15 ± 0.25		
AGGDVPHKTHQAPASASSLPGTGA [DYRK1B]	4.89 ± 0.099	4.87 ± 0.28		
RHSYQVYRQPIPVQELVLEDLQDG [NET1]	4.38 ± 0.083	4.24 ± 0.24		
PAPLLVLCPSRAELDRWLYHLEKQ [PLEKHN1]	2.62 ± 0.11	2.17 ± 0.29		
NWRRKHEEFIATIRAAKGLDQALK [ZC2HC1A]	2.71 ± 0.18	2.78 ± 0.24		

Sequence	protein stability index [1]	protein stability index [2]	protein stability index [3]	protein stability index [4]
ANPYWTSRGSSVSMSGGRFRCPTC [TRIM63]	2.65 ± 0.47	3.1 ± 0.4		
EGLRELQRSRRLCHEDVEALAAIY [DAPK3]	2.72 ± 0.74			
IKVEQATKPSFESGRRGPPPPPRS [RBMX]	4.06 ± 0.36	4.17 ± 0.34		
WFPPAIMGVVSLVFLIIYYLDPSV [ARL6IP1]	2.52 ± 0.46	3.28 ± 0.64		
CGRRGIKVWSLTGQVAEDRFPESH [TLE6]	2.79 ± 0.27	3.11 ± 0.16		
TLLLRLNATDPDEGTNGQLDYSFG [PCDHGC5]	2.88 ± 0.36	3.11 ± 0.28		
RPTSCWQLDWDELETNQQHFHALC [M1AP]	2.39 ± 0.21	2.77 ± 0.38		
YAIVRRPTVGIGGDRLQFNQLSQA [EFHC1]	2.06 ± 0.21	2.5 ± 0.19		
KDGMAFQEALDPGPFDQGSPFAQE [ELF3]	4.65 ± 0.69	4.94 ± 0.12		
FKCNYCGKSFRQRPSLVIHLRIHT [ZNF449]	3.15 ± 0.46	3.35 ± 0.24		
GGQESSGLNLGKKISVPRDVMLEE [MYOZ1]	5.07 ± 0.27	5.1 ± 0.23		
FWHDTLTEQLWRIFAGVHDEKAKP [TLE6]	2.23 ± 0.41	2.41 ± 0.76		
KSGPGDGFFSSAFQARLSGNNLHN [POMT2]	3.04 ± 0.096	2.95 ± 0.41		
ERAKREMVMYSITVAFWLLNSWLW [MFF]	2.48 ± 0.48	1.87 ± 0.39		
VFIDFSVYNANINLFCVLRLVVEF [PKD2L1]	3.51 ± 0.61	2.7 ± 0.4		
AQKTALLQDGRRKVHYLFPDGKEM [DPCD]	3.29 ± 0.22	3.62 ± 0.23		
SVLSACDNLSDLVMVRWNKSLEWS [IQUB]	2.04 ± 0.24	2.33 ± 0.12		
CQRERAFSVKFEVQAPRWGNPRAL [OAS1]	2.46 ± 0.12	2.8 ± 0.27		
MPRHNYHKVAPLVQSLCAKHGIEY [FADS1]	2.64 ± 0.36	2.5 ± 0.36		
IGEEVRQLMEKLREKQLSHSLRAV [BEX1]	2.68 ± 0.14	2.82 ± 0.22		
ATFSGFKKEQRRLGIPKNPWLWSE [ETS2]	2.28 ± 0.18	2.57 ± 0.52		
CEKTFNRKDHLKNHLQTHDPNKMA [PLAGL1]	4.31 ± 0.26	4.42 ± 0.16		
